Source: patent US20250121081A1 (JIANGSU HENGRUI PHARMACEUTICALS, published 2025)

B1: anti-ROR1 antibody Ab1 in WO2018237335 (positive control) (antibody, human IgG1, kappa, V domains shown)
VH: QVQLQESGPGLVKPSQTLSLTCTVSGYAFTAYNIHWVRQAPGQGLEWMGSFDPYDGGSSYNQKFKDRLTISKDTSKNQVVLTMTNMDPVDTATYYCARGWYYFDYWGHGTLVTVSS
VL: DIVMTQTPLSLPVTPGEPASISCRASKSISKYLAWYQQKPGQAPRLLIYSGSTLQSGIPPRFSGSGYGTDFTLTINNIESEDAAYYFCQQHDESPYTFGEGTKVEIKR
notes: Positive control antibody; also called Abl
B2: ADC-5 (antibody 347 conjugated to compound 9A, n=3.99) (antibody, human IgG1, kappa, V domains shown)
VH: QVQLVQSGAEVKKPGSSVKVSCKASGYTFTDYYISWVRQGPGQGLEWMGGINAGNGNTNYAQKFQGRVTITADESTSTAYMELSSLRSEDTAVYYCASPGWDVFDIWGQGTMVTVSS
VL: DIQMTQSPSPLSASVGDRVTITCQASQDISNYLNWYQQKPGKAPKLLIYDASNLETGVPSRFSGSGSGTDFTFTISSLQPEDIATYYCQQHEDLPITFGQGTRLEIKR
modifications: linker-drug compound 9A conjugated after TCEP reduction; average drug loading n=3.99 per antibody; sites not stated
B3: fully human ROR1 antibody 347 (antibody, human IgG1, kappa, V domains shown)
VH: B2 VH
VL: B2 VL
notes: Full-length human IgG1/kappa
B4: ADC-4 (antibody 347 conjugated to compound 9A, n=7.39) (antibody, human IgG1, kappa, V domains shown)
VH: B2 VH
VL: B2 VL
modifications: linker-drug compound 9A conjugated after TCEP reduction; average drug loading n=7.39 per antibody; sites not stated

Experiments:
[1] = molecular target: T1, human ROR1 (Cat. #19771-H08H, Sino Biological) antigen (human, UniProt Q01973 30-403); test: SPR (Biacore T200), IgG captured on Protein A chip, human ROR1 as analyte, 1:1 model
T1 construct: Bought soluble antigen used as SPR analyte
T1 sequence (Q01973 30-403 limits assumed): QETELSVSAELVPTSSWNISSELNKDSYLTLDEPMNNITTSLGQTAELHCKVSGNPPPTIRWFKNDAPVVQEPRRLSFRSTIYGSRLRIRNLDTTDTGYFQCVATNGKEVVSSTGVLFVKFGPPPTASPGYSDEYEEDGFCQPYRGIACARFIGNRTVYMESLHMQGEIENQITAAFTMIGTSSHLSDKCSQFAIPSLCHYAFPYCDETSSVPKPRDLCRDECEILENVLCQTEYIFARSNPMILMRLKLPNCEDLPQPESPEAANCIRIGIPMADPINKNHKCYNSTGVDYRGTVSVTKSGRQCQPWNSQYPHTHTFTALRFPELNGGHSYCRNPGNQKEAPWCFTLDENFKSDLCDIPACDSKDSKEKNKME
Experimental: (§1) The anti-ROR1 antibody was analyzed by Biacore T200 (Cytiva) for affinity characterization and binding kinetics. The IgG antibody was subjected to affinity capture by a Protein A biosensor chip (Cat. #29127556, Cytiva), and then a human ROR1 (Cat. #19771-H08H, Sino Biological) antigen that was diluted with the HBS-EP buffer (pH 7.4, Cat. #BR-1006-69, Cytiva) to a series of concentrations was allowed to flow over the surface of the chip. The antigen-antibody binding kinetics was tracked for 3 min and the dissociation kinetics was tracked for 10 min. Reaction signals were detected in real time using a Biacore T200 instrument to obtain binding and dissociation curves. After dissociation was complete in each cycle, the biosensor chip was washed with 10 mM Gly-HCl at pH 1.5 (Cat. #BR-1003-54, Cytiva) for regeneration. The data obtained were analyzed with BIAevaluation software of Cytiva using a 1:1 (Langmuir) binding model.

[2] = molecular target: T2, mouse ROR1-His (Cat. #RO1-M522, Acro) antigen (mouse, UniProt Q9Z139 30-403); test: SPR (Biacore T200), IgG captured on Protein A chip, antigen as analyte
T2 construct: Bought His-tagged antigen; not shown: His tag
T2 sequence (Q9Z139 30-403 limits assumed): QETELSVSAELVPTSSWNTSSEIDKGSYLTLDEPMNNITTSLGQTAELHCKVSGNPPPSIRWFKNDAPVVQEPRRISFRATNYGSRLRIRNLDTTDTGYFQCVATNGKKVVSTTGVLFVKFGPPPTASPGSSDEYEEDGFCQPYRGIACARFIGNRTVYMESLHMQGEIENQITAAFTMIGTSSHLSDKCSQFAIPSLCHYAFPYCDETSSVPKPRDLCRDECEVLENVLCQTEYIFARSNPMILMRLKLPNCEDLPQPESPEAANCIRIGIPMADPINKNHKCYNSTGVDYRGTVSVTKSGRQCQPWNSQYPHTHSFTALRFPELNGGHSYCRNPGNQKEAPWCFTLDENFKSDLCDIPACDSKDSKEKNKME
Experimental: as §1, with “a mouse ROR1-His” for “a human ROR1”, “(Cat. #RO1-M522, Acro) antigen and a rat ROR1-His (Cat. #RO1-R5221, Acro)” for “(Cat. #19771-H08H, Sino Biological)”, “that were” for “that was”, “concentrations were” for “concentrations was”, “for 15” for “for 10”

[3] = molecular target: T3, rat ROR1-His (Cat. #RO1-R5221, Acro) antigen (rat, UniProt D3ZZ97 30-406); test: as above
T3 construct: Bought His-tagged antigen; not shown: His tag
Experimental: as §1, with “a mouse ROR1-His” for “a human ROR1”, “(Cat. #RO1-M522, Acro) antigen and a rat ROR1-His (Cat. #RO1-R5221, Acro)” for “(Cat. #19771-H08H, Sino Biological)”, “that were” for “that was”, “concentrations were” for “concentrations was”, “for 15” for “for 10”

[4] = molecular target: T4, human ROR1 on cells (ROR1-CHO-K1, Jeko-1, MDA-MB-231, HCC827/ROR1) (human, UniProt Q01973 30-937); test: cell-based or functional assay
T4 sequence (Q01973 30-937 limits assumed): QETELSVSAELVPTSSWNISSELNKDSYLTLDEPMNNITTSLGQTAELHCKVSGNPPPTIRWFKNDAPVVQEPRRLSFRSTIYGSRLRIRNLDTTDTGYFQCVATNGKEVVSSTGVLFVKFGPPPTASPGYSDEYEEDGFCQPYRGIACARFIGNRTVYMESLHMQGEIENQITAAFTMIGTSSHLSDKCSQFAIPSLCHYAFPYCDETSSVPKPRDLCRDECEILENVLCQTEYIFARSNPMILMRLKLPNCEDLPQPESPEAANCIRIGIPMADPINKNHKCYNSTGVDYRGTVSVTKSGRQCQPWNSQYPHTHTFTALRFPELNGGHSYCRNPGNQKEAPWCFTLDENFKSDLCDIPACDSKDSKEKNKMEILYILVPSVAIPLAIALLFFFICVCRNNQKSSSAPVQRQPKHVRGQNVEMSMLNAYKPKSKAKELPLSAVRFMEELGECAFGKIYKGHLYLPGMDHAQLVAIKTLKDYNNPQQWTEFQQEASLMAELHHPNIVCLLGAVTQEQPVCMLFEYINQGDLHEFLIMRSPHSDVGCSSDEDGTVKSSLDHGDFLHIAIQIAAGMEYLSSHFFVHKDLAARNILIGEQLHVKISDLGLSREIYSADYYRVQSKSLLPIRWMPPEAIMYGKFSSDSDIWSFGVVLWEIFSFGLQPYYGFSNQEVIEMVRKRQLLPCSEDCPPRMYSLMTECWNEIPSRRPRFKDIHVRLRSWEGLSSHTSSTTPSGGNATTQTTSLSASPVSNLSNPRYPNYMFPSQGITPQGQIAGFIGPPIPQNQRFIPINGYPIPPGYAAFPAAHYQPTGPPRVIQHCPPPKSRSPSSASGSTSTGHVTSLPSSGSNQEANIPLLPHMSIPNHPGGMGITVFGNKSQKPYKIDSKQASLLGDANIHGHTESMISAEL

[5] = molecular target: T4, human ROR1 on cells (ROR1-CHO-K1, …); test: cell-based or functional assay; remark: listed apart in the source
[6] = molecular target: T4, human ROR1 on cells (ROR1-CHO-K1, …); test: flow cytometry on Jeko-1 cells
Experimental: (§2) ROR1-CHO-K1 cells (Example 1), Jeko-1 cells (ATCC, CRL-3006), or MDA-MB-231 cells (ATCC, CRM-HTB-26) were separately suspended in a FACS buffer (2% fetal bovine serum (Gibco, 10099141) and PBS at pH 7.4 (Sigma, P4417-100TAB) to prepare a cell suspension at 1× 10⁶ cells/mL, and the suspension was then added to a 96-well round-bottom plate at 100 μL/well. After centrifugation and removal of the supernatant, the test antibody that was diluted with the FACS buffer to different concentrations was added at 50 μL/well. The plate was incubated in the dark in a 4° C. refrigerator for 1 h. The plate was washed 3 times with the FACS buffer by centrifugation at 500 g, and a fluorescent secondary antibody at a working concentration was added. The plate was incubated in the dark in the 4° C. refrigerator for 40 min. The plate was washed 3 times with the FACS buffer by centrifugation at 500 g and tested on a BD FACSCantoII flow cytometer for geometric mean fluorescence intensity, and the EC₅₀ values for the binding of the antibody to the cells expressing ROR1 were calculated.

[7] = molecular target: T3, rat ROR1-His (Cat. #RO1-R5221, Acro) …; test: SPR (Biacore T200), IgG captured on Protein A chip, rat ROR1-His as analyte, 1:1 model
Experimental: as §1, with “a mouse ROR1-His” for “a human ROR1”, “(Cat. #RO1-M522, Acro) antigen and a rat ROR1-His (Cat. #RO1-R5221, Acro)” for “(Cat. #19771-H08H, Sino Biological)”, “that were” for “that was”, “concentrations were” for “concentrations was”, “for 15” for “for 10”

[8] = molecular target: T4, human ROR1 on cells (ROR1-CHO-K1, …); test: flow cytometry on ROR1-CHO-K1 cells
Experimental: as §2

[9] = molecular target: T2, mouse ROR1-His (Cat. #RO1-M522, Acro) …; test: SPR (Biacore T200), IgG captured on Protein A chip, mouse ROR1-His as analyte, 1:1 model
Experimental: as §1, with “a mouse ROR1-His” for “a human ROR1”, “(Cat. #RO1-M522, Acro) antigen and a rat ROR1-His (Cat. #RO1-R5221, Acro)” for “(Cat. #19771-H08H, Sino Biological)”, “that were” for “that was”, “concentrations were” for “concentrations was”, “for 15” for “for 10”

[10] = molecular target: T4, human ROR1 on cells (ROR1-CHO-K1, …); test: flow cytometry on MDA-MB-231 cells
Experimental: as §2

Binder | Kd [1] [nM] | koff [1] [s⁻¹] | kon [1] [M⁻¹ s⁻¹] | IC50 (nM), killing of HCC827/ROR1 (+++) cells [4] [nM] | IC50 (nM), killing of Jeko-1 (+) cells [4] [nM] | IC50 (nM), killing of MDA-MB-231 (+) cells [4] [nM] | further results
B1 | 91 | 0.0546 | 600000 |  |  |  | binding result [2]: no binding; binding result [3]: no binding
B2 |  |  |  | 4.36 | 58.1 | 349 | 
B3 | 1.18 | 0.00273 | 2.31e+06 |  |  |  | IC50 (nM) (DT3C endocytosis killing on ROR1-CHOK1) [5]: 0.596 nM; EC50 [6]: 0.098 nM; Kd [7]: 0.0315 nM; koff [7]: 0.00115 s⁻¹; kon [7]: 3.66e+07 M⁻¹ s⁻¹; EC50 [8]: 0.502 nM; Kd [9]: 0.238 nM; koff [9]: 0.000676 s⁻¹; kon [9]: 2.84e+06 M⁻¹ s⁻¹; EC50 [10]: 0.094 nM
B4 |  |  |  | 1.36 | 17.4 | 146 | 
